The source of these data is paper PMC9224406.

Assay [1] concerns the target BDNF pro-peptide V66M pro-peptide (Homo sapiens) (UniProt P23560). In words: SPR. To be noted: cited from earlier work.
For assay [2], the target named is BDNF pro-peptide pro-peptide (Homo sapiens) (UniProt P23560). As to the kind of experiment: SPR. The following applies: cited from earlier work.
The target in assay [3] is human proBDNF V66M variant (human). In words: SAXS; hproBDNF V66M in solution at five concentrations (0.14–1.45 mg/mL), 50 mM Sodium Phosphate pH 7.0, 283 K; molecular mass from I(0) against BSA and from the Porod volume, compared with the calculated monomer mass.

Chain of BDNF (P23560 129-247): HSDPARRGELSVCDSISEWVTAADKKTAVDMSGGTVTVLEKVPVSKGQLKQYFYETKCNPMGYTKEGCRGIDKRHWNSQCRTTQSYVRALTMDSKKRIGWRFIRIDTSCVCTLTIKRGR
Chain of BDNF pro-peptide V66M pro-peptide (Homo sapiens) (P23560 19-128 V66M): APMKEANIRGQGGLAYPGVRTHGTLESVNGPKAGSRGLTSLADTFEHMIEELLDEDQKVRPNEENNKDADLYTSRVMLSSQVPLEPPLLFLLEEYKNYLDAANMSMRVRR
Chain of BDNF pro-peptide pro-peptide (Homo sapiens) (P23560 19-128): as the sequence (P23560 19-128 V66M) above, with M48V counted along it

What is called Kd is the concentration at which binding is half-saturated. BDNF (from UniProt P23560): the Kd was 0.12 nM in assay [1] and 0.42 nM in assay [2]. Broadly, the stoichiometry N is a count of units in the complex or per binding partner. Turning to “human proBDNF V66M variant (natural protein)”, the stoichiometry N in assay [3] was 2.
